Data taken from patent publication US20260125484A1 (GMAX BIOPHARM, published 2026).

What was measured:
[1] = biological target: T1, human endothelin receptor A (hETAR) (human, UniProt P25101 21-427); test: FACS on CHO-DHFR-ETAR cells
T1 construct: GenBank AAB20278; co-expressed with Aequorin in the calcium flux assay; also called human ETAR; CHO-DHFR-hETAR
T1 sequence: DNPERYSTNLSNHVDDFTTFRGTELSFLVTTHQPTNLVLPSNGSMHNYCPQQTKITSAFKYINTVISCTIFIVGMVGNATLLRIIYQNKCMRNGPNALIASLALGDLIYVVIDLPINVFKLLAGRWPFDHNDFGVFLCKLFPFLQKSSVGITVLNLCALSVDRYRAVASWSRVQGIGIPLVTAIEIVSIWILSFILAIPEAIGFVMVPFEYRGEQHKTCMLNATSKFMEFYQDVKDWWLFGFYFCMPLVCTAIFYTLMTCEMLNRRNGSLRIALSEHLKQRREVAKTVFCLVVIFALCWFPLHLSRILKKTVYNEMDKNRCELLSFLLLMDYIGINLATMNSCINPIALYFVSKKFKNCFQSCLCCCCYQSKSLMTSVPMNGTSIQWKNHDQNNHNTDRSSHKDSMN
Experimental: 10⁵ CHO-DHFR-hETAR cells were digested and collected with PBS containing 10 mM EDTA, separately added into 1.5 mL EP tubes, the supernatant was discarded after centrifugation, and the negative control sample was resuspended in a flow loading buffer (PBS, 2% FBS). Positive treatment group cells in each tube were added with 200 μL of the antibody supernatant, and incubated at room temperature; after the completion of the incubation, the cells were centrifuged at 1500 rpm, the supernatant was discarded, the cell precipitate was washed once with a flow loading buffer, and centrifuged again, and the cells were resuspended; 1:50 diluted FITC labeled goat anti-mouse fluorescent secondary antibody (BD Pharmingen) was added to the cell resuspension solution at 200 μL/well, and the cells were incubated at room temperature for 30 min in the dark; and the cells were centrifuged, the supernatant was discarded, the cell was washed once with a flow loading buffer, and centrifuged, the cell precipitate was resuspended with a flow loading buffer for on-machine detection. The supernatant expressing recombinant anti-ETAR functional antibody was specifically bound to CHO-DHFR-ETAR cells expressing ETAR. The gray peaks and dotted line peaks were negative controls; and the solid line peak corresponding to the hybridoma cell supernatant shifted obviously to the right.

[2] = biological target: T1, human endothelin receptor A (hETAR); test: cell-based or functional assay

B1: ETAR antibody A-12 (antibody, mouse IgG1, V domains shown)
VH: EVKLVESGGRLVQPGNSLRLSCATSGFTFSDYYMSWVRQTPGRALEWLSFIRNRANGYTTEYSASVKGRFTISRDNSQSILYLHMSTLRPEDSATYYCVRDSYHYGYFDVWGAGTTVTVSS
VL: EIQMTQTPSSLSASLGDRVTITCSASQGINNYLNWYQQKPGGKTRLLIYYTSTLQSGVPSRFSGSGSGTHYSLTISNLEPEDIATYYCQQFSKLRTFGGGTRLEIKR
notes: also called L12H12
[1]
  binding result: binds

B2: ETAR antibody A-2 (antibody, mouse IgG1, V domains shown)
VH: QIQLVQSGAELAKPGASVRMSCETSGYTFTSYWIHWIKERPGQGLEWIGYINPDTDYSEYNQKFKDKARLTADKSSTTAYMELNSLTFDDSAVYYCASAGYYFFDFWGQGTTLTVSS
VL: DIQMTQSPASLSTSVGETVTITCRASENIYSYLAWYQQRQGKSPHLLVNNAKTLAEGVPSRFSGSGSGTHFSLRISGLQPEDFGSYYCQHHYGIPFTFGGGTKLSIKR
notes: also called L2H2
[1]
  binding result: binds

B3: ETAR antibody A-9 (antibody, mouse IgG1, V domains shown)
VH: EVQLQQPGGGLVQPGGSLTLSCATSGFTFSSYGMSWVRQTPAKRLELVATISTNGATANYPDSVKGRFTISRDNAKSTLYLQMRSLKSEDTAMYYCATEKGAMGYWGQGTSVTVSS
VL: DVLMTQTPLSLPVSLGDQASISCRSSQNIVHSTGNTYLEWYLQKPGQSPKLLIYKVSNRFSGVPNRFRGSGSGTDFTLKITRVEAEDLGIYYCFQGSHFPFTFGSGTKLEIKR
[2]
  IC50, calcium flux inhibition curve: 88 nM

B4: ETAR antibody A-7 (antibody, mouse IgG1, V domains shown)
VH: EVHLVESGGGLVQPGGSLKLSCAASGFTFSTYGMSWVRQTPDKRLELVATINTNGGTTYYRDSVKGRFTISRDNAKNTLYLQMSSLKSDDTAMYYCARDYGAMDYWGQGTSVTVSS
VL: DVLMTQTPLSLPVSLGDHASISCRSSQYIVHSTGTTYLEWYLQKPGQSPQLLIYKVSNRFSGVPDRFTGSGSGTDFTLRISRVEAEDLGVYFCFQGSHFPFTFGSGTKLEIKR
notes: also called L7H7
[1]
  binding result: binds
